Laboratory results: publication PMC5829129, “Synthesis of an Al^18F radiofluorinated GLU-UREA-LYS(AHX)-HBED-CC PSMA ligand in an automated synthesis platform” (EJNMMI Radiopharmacy and Chemistry, 2018)
Read-outs that look alike come from different tables or passages of the source.

How the values were obtained:
[1] = type: physicochemical; details: for Radiochemical purity in the final formulation at room temperature: final formulation vial, HPLC C8, gamma detector, n = 3
Description: The radiochemical purity (RP) was determined using HPLC analysis, a reverse phase column Agilent ZORBAX Eclipse Plus C8 4.6x150mm 5 μm column, flux 2.0 mL/min and the following solvent gradient: (A) TFA 0.1% (v/v) in water, (B) TFA 0.1% (v/v) in acetonitrile; 0–7 min 0 %B, 7–10 min (0–50) %B with GAMMA detector. The stability in the labeling milieu, after purification and preconditioning [^18F]-AlF-PSMA, was performed after incubation the final formulation vial at room temperature for 4 h. In both cases, samples were analyzed by HPLC, using previously described chromatographic conditions.

[2] = test system: LNCaP human prostate cancer cell line xenograft; experiment: In vivo PET/CT imaging of LNCaP xenograft mice, tumour/muscle ratio; parameters: species or system Nude N: NIH (S) – Foxn 1nu mice; details: PET, 60 min after iv injection (33–46 MBq), LNCaP xenograft nude mice, n = 3
Description: Nude N: NIH (S) – Foxn 1nu mice […] were used as prostate cancer tumour model, for in vivo studies. Animals were housed in racks with filtered air under controlled conditions temperature (24 ± 1) °C and relative humidity (40–60)%). They were maintained on a 14:10 h light/dark cycles in the CUDIM animal facility with food and water ad libitum.
For the development of a xenographic human prostate cancer model, LNCaP human prostate cancer cell line (ATCC ATCC® CRL-1740™).
A xenographic human prostate cancer model was used as the prostate cancer tumour model. 5 million LNCaP cells, suspended in 200 μL of culture media (RPMI) with matrix gel, were injected subcutaneously into the left upper leg of male nude mice (2 months old). Appropriate tumour volumes (100–350 mm^3) were achieved between four to six weeks post inoculation. Percutaneous testorerone was daily applied to each mice. Tumours were measured once a week with a microcalliper in two dimensions, and tumour volumes were calculated as (smaller diameter)^2 x larger diameter x π/6.
PET/CT scans were performed using a small animal tri-modality PET/SPECT/CT scanner (TriumphTM, TriFoil, Inc., US) based on Quad-APD detector modules coupled with LYSO/LGSO scintillators (spatial resolution: 1.0 mm; axial field of view (FOV): 3.75 cm). […]
Image processing and semi-quantitative analysis was done using PMOD software, v.3.4. […]

[3] = cited from earlier work
From the text: However, the work of S. Lütje, et al. presented in the EANM 2017, obtain a product which is not stable in PBS, TFA or ethanol. In addition, the product presented in vivo a bone uptake associated with instability of the compound. (Lütje et al. [2017]). Nevertheless E. Al-Momani et al. (Al-Momami et al. [2017]) reported that the stability of the radiopharmaceutical was highly dependent of the formulation conditions, being stable in saline solution with 1% of ethanol or acetate buffer pH 6, and not stable in ethanol 10%/PBS. || Our results with the automated synthesis were in agreement with those previously reported by N. Malik, et by a manual process. In this paper the optimal pH of labeling turned out to be 5 and the stability was greater than 90% at 4 h post production (Malik et al. [2015]). || Recently Kersemans et al. ([n.d.]) have reported an automated synthesis of this radiopharmaceutical in a modified SynthraFCHOL synthesis module (Synthra GmbH, Hamburg, Germany), with a similar e.o.s yield. 100 to 200 μg of the peptide were necessary to achieve a labelling yield higher than 70%. The radiopharmaceutical was stable in buffer phosphate 5 mM pH 7 at least during 150 min.

[4] = cited from earlier work; remark: listed apart in the source
From the text: However, the work of S. Lütje, et al. presented in the EANM 2017, obtain a product which is not stable in PBS, TFA or ethanol. In addition, the product presented in vivo a bone uptake associated with instability of the compound. (Lütje et al. [2017]). Nevertheless E. Al-Momani et al. (Al-Momami et al. [2017]) reported that the stability of the radiopharmaceutical was highly dependent of the formulation conditions, being stable in saline solution with 1% of ethanol or acetate buffer pH 6, and not stable in ethanol 10%/PBS.

[^18F]AlF-[GLU-UREA-LYS(AHX)-HBED-CC] [[^18F]AlF-PSMA-11]
Time of stability in the final formulation vial [1]: 4 h
Radiochemical purity in the final formulation vial ([1]; during 4 h post production, room temperature, HPLC): greater than 90%
Radiochemical purity in the final formulation at room temperature ([1]; room temperature, 1 h post synthesis): 94.6 ± 1.8%
Radiochemical purity in the final formulation at room temperature ([1]; room temperature, 2 h post synthesis): 92.8 ± 2.5%
Radiochemical purity in the final formulation at room temperature ([1]; room temperature, 3 h post synthesis): 93.7 ± 2.0%
Radiochemical purity in the final formulation at room temperature ([1]; room temperature, 4 h post synthesis): 94.2 ± 2.8%
mean T/M ratio (T = Tumor, M = muscle) [2]: 2.2 ± 0.9
Stability in PBS, TFA or ethanol [3]: not stable
Stability in ethanol 10%/PBS [3]: not stable
Stability at 4 h post production ([3]; pH 5): greater than 90%
Stability in saline solution with 1% of ethanol or acetate buffer pH 6 ([3]; pH 6): stable
Time of stability in buffer phosphate 5 mM pH 7 ([3]; pH 7): ≥ 150 min
In vivo bone uptake associated with instability of the compound [4]: bone uptake
